Results from publication PMC9817077, “Simple, Reliable Protocol for High-Yield Solubilization of Seedless Amyloid-β Monomer” (ACS Chemical Neuroscience, 2022).

Tests used:
[1] = Re-freezing of thawed aliquots (AF4-MALS and ThT); type: physicochemical; conditions: 50 mM NaOH, 5 min sonication; re-frozen in liquid N2, on pre-cooled metal or in a rack at −80 °C
Description: 174 S6 Re-freezing of Aβ solubilized in 50 mM NaOH
177 used on multiple separate occasions. Aliquots that had been prepared by sonication for 5 min 178 in 50 mM NaOH were thawed and then re-frozen according to one of three methods: rapid 179 freezing by immersion in liquid N2 (freezing time < 1 s); freezing by placing the Eppendorf 180 tube in contact with pre-cooled metal at -80 °C (< 1 min); and simply placing the sample 181 in a rack in the -80 °C freezer (< 5 min). While the former was obviously preferable, the 182 other two methods were tested due to their convenience, and to ascertain whether improper […]
185 indistinguishable the results obtained with ﬁrst-use aliquots (Figures 3-4 in the main text), […]
Therefore, Aβ(1-42) aliquots
187 […] 188 convenient when performing a range of experiments requiring diﬀerent quantities of peptide.
190 temperature is -80 °C, use of liquid N2 is still recommended whenever possible.
The corresponding LS 90o signal. (c) The normalized ThT self-assembly kinetics. All panels use the same color scheme, which encodes the re-freezing method: red, placement in a rack in the -80 °C freezer; green, freezing by placement in contact with pre-cooled metal at -80 °C; blue, rapid freezing by immersion in liquid N2.
(1 picture or pasted object on this page, not shown here)

[2] = fluorescence-based assays, cited from earlier work
Description: Aβ samples that are stored in a lyophilized form are often re-solubilized by treatment with a dilute base such as 1–10 mM NaOH or 0.02–1% NH4OH.[41],[46],[48],[53],[56],[57] These treatments would be expected to give a pH of 10.6–12.0, in the absence of any partial neutralization of the solvent. […] In addition, many st ...

[3] = Thioflavin T (ThT) self-assembly (fibrillization) kinetics assay; type: physicochemical
Description: Peptide was prepared using either of the aforementioned protocols, with or without HFIP pretreatment, and self-assembly was initiated by rapid dilution into the fibrillization buffer to a final concentration of 1–10 μM peptide. […] The success of this strategy was confirmed empirically.
Self-assembly experiments were carried out in a 20 mM sodium phosphate buffer (pH 8) containing 200 μM EDTA, 1 mM NaN3, and 20 μM ThT. […] Correction can be carried out before or after this addition. However, if correction is carried out after the peptide has been added to the buffer stock, the peptide will already have begun to aggregate so that the delay could influence the results. In addition, adding acid to lower the pH would modify the buffer composition and increase the ionic strength from its intended value. As a better alternative, one can correct the pH in advance, by preparing a buffer stock that is more acidic than the final intended solution but reliably reaches the correct pH following the addition of a known quantity of NaOH and Aβ(1-42). Note that this correction is only necessary when preparing Aβ(1-42) solutions by direct addition of the peptide from NaOH stock and is not necessary when exchanging the peptide into the correct buffer by SEC.
The ratio of NaH2PO4 and Na2HPO4 in the 5× buffer stock was chosen to give the correct pH when mixed with the NaOH and other buffer constituents, and was initially based on calculation and subsequently optimized experimentally. The final intended quantities of H2PO4^– and HPO4^2– can be calculated from the Henderson-Hasselbalch eq.[97] Given an acid dissociation constant K2 ≈ 6.94 at the ionic strength of the self-assembly buffer,[98] one expects the final self-assembly buffer to contain approximately 1.6 mM H2PO4^– and 18.4 mM HPO4^2–. When NaOH is added to phosphate buffer, most of the hydroxide is consumed in the reaction OH^– + H2PO4^– → H2O + HPO4^2–. Therefore, if 10 mM NaOH is incorporated into the final buffer at 10% of the final volume, 1 mM H2PO4^– will be converted to 1 mM HPO4^2–. Thus, to achieve the correct final ratio of phosphate ions, the 5× buffer stock will need to contain 5 × (1.6 + 1.0) mM = 13 mM NaH2PO4 and 5 × (18.4 – 1.0) mM = 87 mM Na2HPO4. Similarly, if 50 mM NaOH is used, the 5× buffer stock will need to contain 5 × (1.6 + 5.0) mM = 33 mM NaH2PO4 and 5 × (18.4 – 5.0) mM = 67 mM Na2HPO4. In practice, these calculations were used to inform preparation of a test buffer stock, which was then used to prepare a test self-assembly buffer using the ratios described above. If the pH of this test solution was outside the 7.98–8.02 range, a new test buffer stock was prepared with a modified composition. […]

## Aβ(1-42): Ultrapure recombinant Aβ(1-42) purchased from rPeptide, lyophilized from HFIP; disordered amyloid-forming peptide
[1]
  AF4-MALS elugrams and ThT kinetics of re-frozen peptide against first-use aliquots: indistinguishable
[2]
  pH threshold for complete elimination of self-assembly: 11.0–12.0 pH
[2]; pH 11.0
  approximate timescale of limited aggregation: several hundred seconds
[3]; 50 mM NaOH samples, 4 μM peptide, 20 mM sodium phosphate pH 8, 37 °C, mean
  initial ThT fluorescence: 2.2 % of final fluorescence
[3]; commercial recombinant samples solubilized in 50 mM NaOH, 20 mM sodium phosphate pH 8, 37 °C, concentration not given
  fibrillization half-time τhalf: 7700 ± 380 s
[3]; commercial recombinant, 5 min sonication in 50 mM NaOH (sample 50-5-N-13), fit of mean half-times 1.5–4.0 μM, 20 mM sodium phosphate pH 8, 37 °C
  scaling exponent γ: −1.32
[3]; re-solubilized in 10 mM NaOH with or without HFIP pretreatment, 1–5 μM peptide, 20 mM sodium phosphate pH 8.0, 200 μM EDTA, 1 mM NaN3, 20 μM ThT, 37 °C, average, SD 0.24 across 9 peptide samples
  scaling exponent γ (slope of half-time vs Aβ(1-42) concentration, double-logarithmic): −1.04
